Results as given in US5595877, “Methods of producing nucleic acid ligands” (NeXstar Pharmaceuticals, Inc.).

Target: HIV-1 reverse transcriptase (HIV-RT) (HIV-1, UniProt P04585;P04585 P04585:588-1147,P04585:588-1027)
Assay: footprint; chemical modification protection and modification interference; 200 mM KOAc, 50 mM Tris-HCl pH 7.7, 37 C
Details: pseudoknot
Protocol: Affinity assays with labeled RNA and HIV-RT. Model RNAs for refinement of the 5' and 3' boundaries and for determination of the effect of substitutions were labeled during transcription with T7 RNA polymerase as described in Tuerk et al. (1990) except that a-32P-ATP was used, in reactions of 0.5 mM C,G, and UTP with 0.05 mM ATP. Synthetic oligonucleotides and phosphatased transcripts (as in Tuerk et al., 1990) were kinased as described in Gauss et al. (1987). All RNA-protein binding reactions were done in a "binding buffer" of 200 mM KOAc, 50 mM Tris-HCl pH 7.7, 10 mM dithiothreitol with exceptions noted for chemical protection experiments below. RNA and protein dilutions were mixed and stored on ice for 30 minutes then transferred to 37° C. for 5 minutes. […] Each reaction was suctioned through a pre-wet (with binding buffer) nitrocellulose filter and rinsed with 3 mls of binding buffer after which it was dried and counted for assays or subjected to elution and assayed for chemical modification. In comparisons of binding affinity, results were plotted and the protein concentration at which half-maximal binding occurred (the approximate Kd in conditions of protein excess) was determined graphically.
Selection of modified RNAs by HIV-RT. […] The extent of modification interference by ENU was determined by densitometric scanning of films using an LKB laser densitomer.

B1: lengthened ligand B RNA (ssRNA)
RNA: GGUCCGAAGUGCAACGGGAAAAUGCACUAUGAAAGAAUUUUAUAUCUCUAUUGAAAC
Question: Does B1 bind?
Answer: Result: binds
